In the supplement of paper PMC10567573:

B1: PRKX (parent)
chain: KLLVVDRTRRLGNMKNGANDVKHH

Variants of: B1
Test: protein stability index of a GFP-peptide fusion (GPS, HEK-293T) (PSI 1-6); higher = more stable
Settings: c terminus: a fixed tail appended
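Note: lentivirally expressed fusions sorted by FACS into six bins by GFP to DsRed ratio, PSI derived from sequencing read proportions per bin multiplied by bin number.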

Variant	protein stability index
KLLVVDRTRRLGNMKPGANDVKHH	3.16
KLLVVDRTRRLGNMKCGANDVKHH	2.13
KLLVVDRTRRLGNMKRGANDVKHH	2.74
KLLVVDDTRRLGNMKNGANDVKHH	4.05
KLLVVDNTRRLGNMKNGANDVKHH	3.25
KLLVVDFTRRLGNMKNGANDVKHH	1.83
KLLVVDETRRLGNMKNGANDVKHH	3.7
KLLVVDMTRRLGNMKNGANDVKHH	2.43
KLLVVDTTRRLGNMKNGANDVKHH	3.18
RLLVVDRTRRLGNMKNGANDVKHH	2.52
FLLVVDRTRRLGNMKNGANDVKHH	1.44
NLLVVDRTRRLGNMKNGANDVKHH	3.45
ILLVVDRTRRLGNMKNGANDVKHH	1.78
DLLVVDRTRRLGNMKNGANDVKHH	3.82
ALLVVDRTRRLGNMKNGANDVKHH	2.33
CLLVVDRTRRLGNMKNGANDVKHH	1.85
KLLVVDRTKRLGNMKNGANDVKHH	2.99
KLLVVDRTQRLGNMKNGANDVKHH	3.38
KLLVVDRTWRLGNMKNGANDVKHH	2.12
KLLVVDRTNRLGNMKNGANDVKHH	2.81
KLLVVDRTHRLGNMKNGANDVKHH	3.07
KLLVVDRTRRLGNMKNQANDVKHH	3
KLLVVDRTRRLGNMKNWANDVKHH	1.86
KLLVVDRTRRLGNMKNYANDVKHH	2.34

Variant	protein stability index
KLLVVDRTRRLGNMKNMANDVKHH	2.63
KLLVVDRTRRLGNMKNHANDVKHH	3.4
KLLVVDRTRRLGFMKNGANDVKHH	2.02
KLLVVDRTRRLGKMKNGANDVKHH	2.81
KLLVVDRTRRLGLMKNGANDVKHH	2.31
KLLVVDRTRRLGNMKNGANSVKHH	2.38
KLLVVDRTRRLGNMKNGANHVKHH	2.89
KLLVVDRTRRLGNMKNGANQVKHH	3.13
KLLVVDRTRRLGNMKNGANGVKHH	3.27
KLLVVDRTRRLGNMKNGANYVKHH	2.19
KLLVVDRTRRLGNMKNGANIVKHH	2.09
KLLVVDRTRRLGNHKNGANDVKHH	3.54
KLLVVDRTRRLGNAKNGANDVKHH	3.4
KLLVVDRTRRLGNPKNGANDVKHH	2.98
KLLVVDRTRRLGNTKNGANDVKHH	3
KLLVVDRTRRLGNQKNGANDVKHH	3.62
KLLVVDRTRKLGNMKNGANDVKHH	2.84
KLLVVDRTRVLGNMKNGANDVKHH	3.08
KLLVVDRTRLLGNMKNGANDVKHH	2.82
KLLVVDRTRALGNMKNGANDVKHH	3.06
KLLVVDRTRFLGNMKNGANDVKHH	2.31
KLLVVDRTRSLGNMKNGANDVKHH	4.15
KLLVVDRTRDLGNMKNGANDVKHH	3.68
KLLVVDRTRWLGNMKNGANDVKHH	2.8

Variant	protein stability index
KLLVVDRTRRLMNMKNGANDVKHH	2.24
KLLVVDRTRRLKNMKNGANDVKHH	2.48
KLLVVDRTRRLCNMKNGANDVKHH	2.84
KLLVVDRTRRLLNMKNGANDVKHH	2.83
KLLVVDRTRRLSNMKNGANDVKHH	3.02
KLLVVDRTRRLWNMKNGANDVKHH	2.19
KLLVVDRTRRLVNMKNGANDVKHH	2.67
KLLVVDRTRRLGNMKNGANDVKHI	2.23
KLLVVDRTRRLGNMKNGANDVKHW	2.76
KLLVVDRTRRLGNMKNGANDVKHA	3.61
KLLVVDRTRRLGNMKNGANDVKHS	3.48
KLLVVDRTRRLGNMKNGANDVKHM	2.63
KLLVVDRVRRLGNMKNGANDVKHH	3
KLLVVDRGRRLGNMKNGANDVKHH	2.55
KLLVVDRMRRLGNMKNGANDVKHH	2.54
KLLVVDRPRRLGNMKNGANDVKHH	2.74
KLLVVSRTRRLGNMKNGANDVKHH	2.81
KLLVVYRTRRLGNMKNGANDVKHH	2.29
KLLVVHRTRRLGNMKNGANDVKHH	2.82
KLLVVDRTRRLGNMKNGARDVKHH	2.54
KLLVVDRTRRLGNMKNGAMDVKHH	2.59
KLLVVDRTRRLGNMKNGAQDVKHH	2.89
KLLVVDRTRRLGNMKNGATDVKHH	3.11
KLLVADRTRRLGNMKNGANDVKHH	3.74

Variant	protein stability index
KLLVTDRTRRLGNMKNGANDVKHH	3.67
KLLVWDRTRRLGNMKNGANDVKHH	2.33
KLLVHDRTRRLGNMKNGANDVKHH	3.41
KLLVIDRTRRLGNMKNGANDVKHH	2.33
KLLVNDRTRRLGNMKNGANDVKHH	3.3
KLLVSDRTRRLGNMKNGANDVKHH	3.62
KLLVPDRTRRLGNMKNGANDVKHH	3.62
KLLVVDRTRRRGNMKNGANDVKHH	3.65
KLLVVDRTRRQGNMKNGANDVKHH	3.42
KLLVVDRTRRGGNMKNGANDVKHH	3.21
KLLVVDRTRRAGNMKNGANDVKHH	3.23
KLLVVDRTRRIGNMKNGANDVKHH	3.22
KLLKVDRTRRLGNMKNGANDVKHH	2.7
KLLGVDRTRRLGNMKNGANDVKHH	3.32
KLLEVDRTRRLGNMKNGANDVKHH	3.46
KLLCVDRTRRLGNMKNGANDVKHH	3.17
KLLRVDRTRRLGNMKNGANDVKHH	2.86
KLLLVDRTRRLGNMKNGANDVKHH	3
KLLAVDRTRRLGNMKNGANDVKHH	3.31
KLLSVDRTRRLGNMKNGANDVKHH	3.65
KLLHVDRTRRLGNMKNGANDVKHH	3.62
KLLNVDRTRRLGNMKNGANDVKHH	3.6
